This data set has as its system Hmp1 (Ustilago maydis). In words: competition.

G/A mismatch 50-mer came in with a binding signal (equal to C/T competitor at 75 nM) of 1 fold.
In turn, G/C homoduplex 50-mer returned a binding signal (4-fold more homoduplex needed than C/T competitor, exact homoduplex pair not stated) of 4 fold.
As for cruciform DNA 61-mer, the binding signal (cruciform more effective competitor than C/T mismatch) came to 7.5 fold.
